Earlier results, collected in paper PMC6173998.
pKi: −log10 of the molar value. Where two headings read alike, the source gives them in different places. Blank lines part the entries; values can stand above or below the substance they belong to.

Experiments:
[1] = biological target: FXIa (Homo sapiens) (UniProt P03951)
[2] = biological target: KD APPH Kunitz domain (Homo sapiens) (UniProt Q06481)
[3] = biological target: FXIa (Homo sapiens) (UniProt P03951); remark: listed apart in the source
[4] = biological target: KD APPH Kunitz domain (Homo sapiens) (UniProt Q06481); remark: listed apart in the source
[5] = biological target: FXIa (Homo sapiens) (UniProt P03951); remark: listed apart in the source
[6] = biological target: KD APPH Kunitz domain (Homo sapiens) (UniProt Q06481); remark: listed apart in the source
[7] = biological target: Aprotinin (Bos taurus) (UniProt P00974)
[8] = biological target: Protease nexin-2 (Homo sapiens) (UniProt P05067)
Sequence of Protease nexin-2 (Homo sapiens) (P05067 18-687): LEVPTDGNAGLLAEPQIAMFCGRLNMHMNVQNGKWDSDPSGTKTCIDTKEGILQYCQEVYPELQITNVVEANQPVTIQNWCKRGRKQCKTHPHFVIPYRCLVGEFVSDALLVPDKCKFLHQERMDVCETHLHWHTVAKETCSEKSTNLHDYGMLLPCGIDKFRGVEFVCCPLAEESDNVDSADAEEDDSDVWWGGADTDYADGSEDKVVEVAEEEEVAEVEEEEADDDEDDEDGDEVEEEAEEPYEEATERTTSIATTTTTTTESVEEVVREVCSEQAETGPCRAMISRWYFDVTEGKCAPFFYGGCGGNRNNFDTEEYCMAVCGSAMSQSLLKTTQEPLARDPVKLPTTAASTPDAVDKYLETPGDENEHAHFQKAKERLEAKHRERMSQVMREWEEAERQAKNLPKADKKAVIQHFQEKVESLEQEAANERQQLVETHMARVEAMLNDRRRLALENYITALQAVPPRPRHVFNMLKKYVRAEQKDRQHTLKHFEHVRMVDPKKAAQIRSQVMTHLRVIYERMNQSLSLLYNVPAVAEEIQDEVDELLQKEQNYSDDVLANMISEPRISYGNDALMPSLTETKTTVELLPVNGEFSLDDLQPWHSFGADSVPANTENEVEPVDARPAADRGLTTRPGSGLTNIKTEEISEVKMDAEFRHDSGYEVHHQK

[9] = biological target: Tissue factor pathway inhibitor-2 (KD1-WT) KD1 (Homo sapiens) (UniProt P48307)
Sequence of Tissue factor pathway inhibitor-2 (KD1-WT) KD1 (Homo sapiens) (P48307 36-86): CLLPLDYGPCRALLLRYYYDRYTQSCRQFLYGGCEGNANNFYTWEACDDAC

[10] = biological target: Placental bikunin (Homo sapiens) (UniProt O43291)
Sequence of Placental bikunin (Homo sapiens) (O43291 28-197): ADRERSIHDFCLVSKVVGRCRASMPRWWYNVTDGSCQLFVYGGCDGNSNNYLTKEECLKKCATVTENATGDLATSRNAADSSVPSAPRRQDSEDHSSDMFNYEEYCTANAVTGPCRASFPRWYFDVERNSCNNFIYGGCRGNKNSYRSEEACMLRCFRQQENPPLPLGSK

[11] = biological target: KD APPH Kunitz domain (Homo sapiens) (UniProt Q06481); remark: listed apart in the source
[12] = biological target: Corn Hageman factor inhibitor (Zea mays) (UniProt P01088)
Sequence of Corn Hageman factor inhibitor (Zea mays) (P01088 29-138): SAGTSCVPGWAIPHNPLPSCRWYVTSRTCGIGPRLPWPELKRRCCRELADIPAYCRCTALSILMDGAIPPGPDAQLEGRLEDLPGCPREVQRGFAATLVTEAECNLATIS

[13] = biological target: FXIa (Homo sapiens) (UniProt P03951); remark: listed apart in the source

Sequence of KD APPH Kunitz domain (Homo sapiens) (Q06481 306-364): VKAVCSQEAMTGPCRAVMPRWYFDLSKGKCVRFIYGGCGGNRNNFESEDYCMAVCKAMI
Sequence of Plasma kallikrein (P03952 391-638): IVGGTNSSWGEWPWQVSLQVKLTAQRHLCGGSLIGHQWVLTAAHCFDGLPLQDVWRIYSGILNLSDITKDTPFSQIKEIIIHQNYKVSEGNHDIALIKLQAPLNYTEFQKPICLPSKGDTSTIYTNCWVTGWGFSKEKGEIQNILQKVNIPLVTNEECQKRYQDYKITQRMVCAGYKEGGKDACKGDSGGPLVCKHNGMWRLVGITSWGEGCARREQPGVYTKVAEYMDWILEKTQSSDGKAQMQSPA
Sequence of TFPI-2 (KD1-WT) KD1 (P48307 36-86): as the sequence (P48307 36-86) above
Sequence of protease nexin-2 (P05067 18-687): as the sequence (P05067 18-687) above
Sequence of Plasmin (P00747 581-810): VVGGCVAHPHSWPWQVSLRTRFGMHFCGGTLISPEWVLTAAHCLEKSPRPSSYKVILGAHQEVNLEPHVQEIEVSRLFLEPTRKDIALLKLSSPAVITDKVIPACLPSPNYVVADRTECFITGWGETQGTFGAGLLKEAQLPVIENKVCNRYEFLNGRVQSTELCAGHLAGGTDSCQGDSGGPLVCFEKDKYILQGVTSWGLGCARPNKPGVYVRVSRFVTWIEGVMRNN
Sequence of placental bikunin (O43291 28-197): as the sequence (O43291 28-197) above
Sequence of corn Hageman factor inhibitor (P01088 29-138): as the sequence (P01088 29-138) above

Substance: protease nexin-2 (from UniProt P05067)
pKi [1]: 9.40

Substance: Glandular kallikrein (from UniProt P06870)
pKi [2]: 8.06

Substance: TFPI-2 (KD1-WT) KD1 (from UniProt P48307)
pKi [3]: 7.82

Substance: Factor XIa (from UniProt P03951)
pKi [7]: 6.54 | pKi [8]: 9.40 | pKi [9]: 7.82 | pKi [10]: 8.22 | pKi [11]: 7.85 | pKi [12]: 5.27

Substance: corn Hageman factor inhibitor (from UniProt P01088)
pKi [13]: 5.27

Further lines, results first:

pKi [4]: 7.07
Substance: Plasma kallikrein (from UniProt P03952)

pKi [5]: 8.22
Substance: placental bikunin (from UniProt O43291)

pKi [6]: 7.09
Substance: Plasmin (from UniProt P00747)
